Data on one substance can be found in paper PMC9401124.

The experiment deals with EsxT (M. abscessus), co-expressed with EsxU in M. smegmatis (Mycobacterium abscessus ATCC 19977). As to the kind of experiment: SEC-MALS; purified EsxU/EsxT complex injected at 10 mg/mL on S200 5/150, 0.8 mL/min, 20 mM Tris pH 8.0, 300 mM NaCl, 5% glycerol. For orientation: SEC sorts molecules by how far they enter the pores of the column.

As to “EsxU (M. abscessus), co-expressed with EsxT in M. smegmatis (natural protein)”, the stoichiometry N stood at 1.

Broadly, the stoichiometry N is the number of molecules, sites or subunits per partner or assembly.
